The text below walks through data of PMC8073111.

In assay [1] the target is T1, C-myc-CCR4-RLuc8 (human) (UniProt P51679).
T1 sequence: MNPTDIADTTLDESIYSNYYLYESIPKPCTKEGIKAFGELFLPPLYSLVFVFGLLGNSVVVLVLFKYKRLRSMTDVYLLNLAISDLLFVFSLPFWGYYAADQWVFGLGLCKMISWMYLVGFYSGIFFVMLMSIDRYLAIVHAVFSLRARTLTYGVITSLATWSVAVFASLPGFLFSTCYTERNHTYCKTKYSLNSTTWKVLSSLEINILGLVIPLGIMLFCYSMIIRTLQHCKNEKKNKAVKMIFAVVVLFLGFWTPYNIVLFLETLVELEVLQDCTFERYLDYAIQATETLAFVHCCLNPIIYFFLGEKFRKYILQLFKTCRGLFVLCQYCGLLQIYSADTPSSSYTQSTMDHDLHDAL

In assay [2] the target is C-myc-CCR7-RLuc8 (human) (UniProt P32248).
UniProt P32248, sequence (P32248 25-378): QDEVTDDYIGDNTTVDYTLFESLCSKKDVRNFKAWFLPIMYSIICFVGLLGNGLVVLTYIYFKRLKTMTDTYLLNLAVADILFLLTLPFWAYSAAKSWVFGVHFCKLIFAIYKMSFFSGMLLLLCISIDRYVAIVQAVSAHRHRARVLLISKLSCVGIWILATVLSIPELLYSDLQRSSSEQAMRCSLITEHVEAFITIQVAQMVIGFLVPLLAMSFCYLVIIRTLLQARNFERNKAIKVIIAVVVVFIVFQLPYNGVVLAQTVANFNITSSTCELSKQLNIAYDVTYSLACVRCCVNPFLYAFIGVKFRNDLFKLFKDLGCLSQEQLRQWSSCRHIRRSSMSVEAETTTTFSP
For assay [3] the target is unchanged. The conditions noted are these: scale: pEC50.
The target in assay [4] is T2, C-myc-CCR10-RLuc8 (human) (UniProt P46092).
T2 sequence: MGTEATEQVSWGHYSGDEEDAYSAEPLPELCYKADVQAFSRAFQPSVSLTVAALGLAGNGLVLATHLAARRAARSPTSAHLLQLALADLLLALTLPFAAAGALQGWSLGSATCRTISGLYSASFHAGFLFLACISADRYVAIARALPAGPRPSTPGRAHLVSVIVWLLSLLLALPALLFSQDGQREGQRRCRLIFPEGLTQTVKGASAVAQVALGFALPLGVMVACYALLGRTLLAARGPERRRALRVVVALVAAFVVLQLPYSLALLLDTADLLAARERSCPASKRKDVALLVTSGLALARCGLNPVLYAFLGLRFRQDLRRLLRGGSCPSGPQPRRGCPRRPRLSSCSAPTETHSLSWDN

In turn, “CC chemokine ligand 17 (CCL17) (from UniProt Q92583 24-94)” registered a β-arrestin2 recruitment to CCR4 (BRET): Emax relative to CCL22 in assay [1] of 28%.
As to “CCL21 (from UniProt O00585 24-134) (ligand)”, in assay [2], the G protein activation via CCR7: Emax relative to CCL19 was determined as 103% and the cAMP inhibition via CCR7: Emax relative to CCL19 was 99%. This molecule also displayed a β-arrestin2 recruitment to CCR7 (BRET): pEC50 as printed in the text, assuming the same Emax value (differs from Table 1) in assay [3] of 6.7.

B1: CCL28(4-108) (ligand)
chain: ILPIASSCCTEVSHHISRRLLERVNMCRIQRADGDCDLAAVILHVKRRRICVSPHNHTVKQWMKVQAAKKNGKGNVCHRKKHHGKRNSNRAHQGKHETYGHKTPY
In assay [4], B1 had a G protein activation via CCR10: maximum signal observed relative to the Emax of CCL27; curve not saturated of 80%; an NFAT Ca2+ reporter via CCR10: Emax relative to CCL27 of 106%; a cAMP inhibition via CCR10: maximum signal observed relative to the Emax of CCL27; curve not saturated of 64%; a β-arrestin2 recruitment to CCR10 (BRET): maximum signal observed relative to the Emax of CCL27; curve not saturated, potency ND of 82%.
